# Values quoted from earlier work, collected in publication PMC4520744.
# Biological target: HBV capsid protein (Hepatitis B virus) (UniProt P03149)
substance,measurement,value
HBV capsid protein (from UniProt P03149),Kd,3000 µM
